US20250163129A1 (IMMUNOS THERAPEUTICS, published 2025)

Biological target: T1, HLA-B57(A46E/V97R).β2m IgG4 Fc fusion protein dimer associated with β2m (human; homo sapiens)
T1 construct: also called iosH2; losH2
Test: ELISA, biotinylated LILRB2 on streptavidin plate
Description: The inventors went on to dissect the immunological properties most relevant to tumor immunity associated with HLA-B57^{(A46E/V97R)} formats, all lacking association with a peptide epitope associated with the peptide-binding groove of the HLA class I domain of the fusion protein. The affinity of interaction of LILRB2 with wildtype HLA-B57 fusion protein (dimers) lacking β2m, HLA-B57^{(A46E/V97R)} fusion protein (dimers) lacking β2m, and HLA-B57^{(A46E/V97R)} fusion protein dimers still bound to β2m was measured using the enzyme-linked immunosorbent assay (ELISA) method. Flat bottom Pierce™ Streptavidin coated high binding capacity 96 well plates (Pierce #15500) were coated with 50 μl of c-terminally biotinylated antigen molecules (LILRB2, BPS Bioscience #100335) immobilized at a final concentration of 5 μg/ml in PBS buffer. PBS and IgG isotype were used as negative controls. A serial dilution of HLA-B57, or HLA-B57^{(A46E/V97R)} lacking β2m, and HLA-B57^{(A46E/V97R)}.β2m (eight concentration points: 10, 2.5, 1, 0.25, 0.1, 0.025, 0.01, 0.0025 μg/ml) was applied (50 μl) in duplicates. An APC conjugated goat anti-human IgG antibody (Jackson Immuno Research #109-135-098) with 1:100 dilution in TBS (50 μl) was used for detection. Finally, 50 μl TBS in each well was added and a fluorescence scan was performed with APC excitation and emission wavelengths of 650 nm & 660 nm, respectively. […]

binding result: binds
B1: LILRB2, c-terminally biotinylated (BPS Bioscience #100335) (receptor, UniProt Q8N423 22-458, looked up)
chain: QTGTIPKPTLWAEPDSVITQGSPVTLSCQGSLEAQEYRLYREKKSASWITRIRPELVKNGQFHIPSITWEHTGRYGCQYYSRARWSELSDPLVLVMTGAYPKPTLSAQPSPVVTSGGRVTLQCESQVAFGGFILCKEGEDEHPQCLNSQPHARGSSRAIFSVGPVSPNRRWSHRCYGYDLNSPYVWSSPSDLLELLVPGVSKKPSLSVQPGPVMAPGESLTLQCVSDVGYDRFVLYKEGERDLRQLPGRQPQAGLSQANFTLGPVSRSYGGQYRCYGAHNLSSECSAPSDPLDILITGQIRGTPFISVQPGPTVASGENVTLLCQSWRQFHTFLLTKAGAADAPLRLRSIHEYPKYQAEFPMSPVTSAHAGTYRCYGSLNSDPYLLSHPSEPLELVVSGPSMGSSPPPTGPISTPGPEDQPLTPTGSDPQSGLGRHL
modifications: C-terminal biotin
notes: Bought reagent immobilised on streptavidin plates
